The target of data set [1] is T1, TFPI (tissue factor pathway inhibitor, full-length) (Homo sapiens, UniProt P10646 SEQ:1-276). The data set can be described thus: competition; dot-blot. The following applies: tags: American Diagnostica 4500PC/4900PC, E. coli expressed. As for the experimental part:
Each molecule was evaluated for binding to tissue factor pathway inhibitor (TFPI) in a binding-competition assay. For these experiments, 10 nM human TFPI (American Diagnostica, Stamford, Conn., catalog #4500PC) was incubated with trace amounts of radiolabeled ARC17480 and 5000 nM, 1666.67 nM, 555.56 nM, 185.19 nM, 61.73 nM, 20.58 nM, 6.86 nM, 2.29 nM, 0.76 nM or 0.25 nM of unlabeled competitor aptamer. ARC17480 was included as a competitor in every experiment as a control. For each molecule, the percentage of radiolabeled ARC17480 bound at each competitor aptamer concentration was used for analysis. The percentage of radiolabeled ARC17480 bound was plotted as a function of aptamer concentration and fit to the equation y=(max/(1+x/IC₅₀))+int, where y=the percentage of radiolabeled ARC17480 bound, x=the concentration of aptamer, max=the maximum radiolabeled ARC17480 bound, and int=the y-intercept, to generate an IC₅₀ value for binding-competition. The IC₅₀ of each aptamer was compared to the IC₅₀ of ARC17480 that was evaluated in the same experiment. A substitution was considered tolerated in the binding-competition assay if the IC₅₀ of that molecule was not more than 5-fold greater than that of ARC17480 evaluated in the same experiment. Tolerated substitutions are indicated in Table 37 as meeting the assay criteria (“yes”) or not meeting the assay criteria (“no”).

In data set [2] the target is T1, TFPI (tissue factor pathway inhibitor, …). Kind of data set: competition; fails binding-competition criterion. The following applies: tags: American Diagnostica 4500PC/4900PC, E. coli expressed. The protocol: Each molecule was evaluated for binding to tissue factor pathway inhibitor (TFPI) in a binding-competition assay. For these experiments, 10 nM human TFPI (American Diagnostica, Stamford, Conn., catalog #4500PC) was incubated with trace amounts of radiolabeled ARC17480 and 5000 nM, 1666.67 nM, 555.56 nM, 185.19 nM, 61.73 nM, 20.58 nM, 6.86 nM, 2.29 nM, 0.76 nM or 0.25 nM of unlabeled competitor aptamer. ARC17480 was included as a competitor in every experiment as a control. For each molecule, the percentage of radiolabeled ARC17480 bound at each competitor aptamer concentration was used for analysis. The percentage of radiolabeled ARC17480 bound was plotted as a function of aptamer concentration and fit to the equation y=(max/(1+x/IC₅₀))+int, where y=the percentage of radiolabeled ARC17480 bound, x=the concentration of aptamer, max=the maximum radiolabeled ARC17480 bound, and int=the y-intercept, to generate an IC₅₀ value for binding-competition. The IC₅₀ of each aptamer was compared to the IC₅₀ of ARC17480 that was evaluated in the same experiment. A substitution was considered tolerated in the binding-competition assay if the IC₅₀ of that molecule was not more than 5-fold greater than that of ARC17480 evaluated in the same experiment. Tolerated substitutions are indicated in Table 38 as meeting the assay criteria (“yes”) or not meeting the assay criteria (“no”).

Our source for the binding signal values is patent publication US20110281938, “APTAMERS TO TISSUE FACTOR PATHWAY INHIBITOR AND THEIR USE AS BLEEDING DISORDER THERAPEUTICS” (Baxter Healthcare S.A., published 2011).

T1 sequence (P10646 29-304): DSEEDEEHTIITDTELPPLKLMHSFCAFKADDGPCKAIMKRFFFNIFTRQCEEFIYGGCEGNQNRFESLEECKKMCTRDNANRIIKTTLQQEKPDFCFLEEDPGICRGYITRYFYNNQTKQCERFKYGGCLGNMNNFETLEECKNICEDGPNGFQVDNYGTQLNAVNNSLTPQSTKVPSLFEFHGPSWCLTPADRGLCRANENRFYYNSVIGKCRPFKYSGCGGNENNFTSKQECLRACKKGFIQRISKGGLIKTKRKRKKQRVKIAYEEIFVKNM

With GGAATAUACUUGGCUCGUUAGGUGCGUAUAUA (XNA, 2'-OMe except dC9, dC14, dC16, dC25 and dT5; 3' idT) [ARC19452], the binding signal in data set [1] is ≤ 5 fold IC50 vs ARC17480. Still for that read-out and setting: for GGAAUAUACUUGGCUCGUUAGGUGCGUAUAUA (XNA, 2'-OMe except dC9, dC14, dC16, dC25 and dG2; 3' idT) [ARC19449] the value was ≤ 5 fold IC50 vs ARC17480; for GGAAUAUACUUGGCUCGUUAGGUGCGUAUAUA (XNA, 2'-OMe except dC9, dC14, dC16, dC25 and dA20; 3' idT) [ARC19464], ≤ 5 fold IC50 vs ARC17480. For GGAAUAUACUUGGCUCGUTAGGUGCGUAUAUA (XNA, 2'-OMe except dC9, dC14, dC16, dC25 and dT19; 3' idT) [ARC19463], the binding signal in data set [1] was ≤ 5 fold IC50 vs ARC17480. For GGAAUAUACUUGGCUCGUUAGGUGCGUAUATA (XNA, 2'-OMe except dC9, dC14, dC16, dC25 and dT31; 3' idT) [ARC19474], in data set [1], the binding signal was ≤ 5 fold IC50 vs ARC17480. On the same count and under the same terms, for GGAAUAUACUUGGCUCGUUAGGUGCGUAUAUA (XNA, 2'-OMe except dC9, dC14, dC25; 2'-F C16; 3' idT) [ARC19495] the value was ≤ 5 fold IC50 vs ARC17480. Same read-out and setting: for GGAAUAUACUUGGCUCGUUAGGUGCGUAUAUA (XNA, 2'-OMe except dC9, dC14, dC16, dC25 and dU15; 3' idT) [ARC33871] the value was ≤ 5 fold IC50 vs ARC17480; for GGAAUAUACUUGGCUCGUUAGGUGCGUAUAUA (XNA, 2'-OMe except dC9, dC14, dC16, dC25 and dA4; 3' idT) [ARC19451], ≤ 5 fold IC50 vs ARC17480. On the same count and under the same terms, for GGAAUAUACUUGGCUCGUUAGGUGCGUAUAUA (XNA, 2'-OMe except dC9, dC14, dC16, dC25 and dU18; 3' idT) [ARC33872] the value was ≤ 5 fold IC50 vs ARC17480; for GGAAUAUACUUGGCUCGUUAGGUGCGUAUAUA (XNA, 2'-OMe except dC9, dC14, dC16, dC25 and dG1; 3' idT) [ARC19448], ≤ 5 fold IC50 vs ARC17480.

For GGAAUAUACUUGGCUCGUUAGGUGCGUATAUA (XNA, 2'-OMe except dC9, dC14, dC16, dC25 and dT29; 3' idT) [ARC19472], the binding signal in data set [1] is ≤ 5 fold IC50 vs ARC17480. The same measure, in the same setting: for GGAAUAUACUUGGCUCGUUAGGUGCGUAUAUA (XNA, 2'-OMe except dC9, dC14, dC16, dC25 and dA28; 3' idT) [ARC19471] the value was ≤ 5 fold IC50 vs ARC17480. Still for that read-out and setting: for GGAAUAUACUUGGCUCGUUAGGUGCGUAUAUA (XNA, 2'-OMe except dC9, dC14, dC16, dC25 and dA32; 3' idT) [ARC19475] the value was ≤ 5 fold IC50 vs ARC17480; for GGAAUAUACUUGGCTCGUUAGGUGCGUAUAUA (XNA, 2'-OMe except dC9, dC14, dC16, dC25 and dT15; 3' idT) [ARC19460], ≤ 5 fold IC50 vs ARC17480. On to GGAAUAUACUUGGCUCGUUAGGUGCGUAUAUA (XNA, 2'-OMe except dC9, dC14, dC16, dC25 and dG17; 3' idT) [ARC19461], for which, in data set [1], the binding signal is ≤ 5 fold IC50 vs ARC17480. Still for that read-out and setting: for GGAAUAUACUTGGCUCGUUAGGUGCGUAUAUA (XNA, 2'-OMe except dC9, dC14, dC16, dC25 and dT11; 3' idT) [ARC19457] the value was ≤ 5 fold IC50 vs ARC17480; for GGAAUAUACUUGGCUCGUUAGGUGCGUAUAUA (XNA, 2'-OMe except dC9, dC14, dC16, dC25 and dU5; 3' idT) [ARC33867], ≤ 5 fold IC50 vs ARC17480; for GGAAUAUACUUGGCUCGUUAGGUGCGUAUAUA (XNA, 2'-OMe except dC9, dC14, dC16; 2'-F C25; 3' idT) [ARC19496], ≤ 5 fold IC50 vs ARC17480. For GGAAUAUACUUGGCUCGUUAGGUGCGUAUAUA (XNA, 2'-OMe except dC9, dC14, dC16, dC25 and dG22; 3' idT) [ARC19466], the binding signal in data set [1] was ≤ 5 fold IC50 vs ARC17480. For the molecule GGAAUAUACUUGGCUCGUUAGGUGCGUAUAUA (XNA, 2'-OMe except dC9, dC14, dC16, dC25 and dG24; 3' idT) [ARC19468], in data set [1], the binding signal was ≤ 5 fold IC50 vs ARC17480. On the same count and under the same terms, for GGAAUAUACUUGGCUCGUUAGGUGCGUAUAUA (XNA, 2'-OMe except dC9, dC14, dC16, dC25 and dU23; 3' idT) [ARC33874] the value was ≤ 5 fold IC50 vs ARC17480; for GGAAUATACUUGGCUCGUUAGGUGCGUAUAUA (XNA, 2'-OMe except dC9, dC14, dC16, dC25 and dT7; 3' idT) [ARC19454], ≤ 5 fold IC50 vs ARC17480. On the same count and under the same terms, for GGAAUAUACUUGGCUCGUUAGGUGCGUAUAUA (XNA, 2'-OMe except dC9, dC14, dC16, dC25 and dG12; 3' idT) [ARC19458] the value was ≤ 5 fold IC50 vs ARC17480; for GGAAUAUACUUGGCUCGUUAGGUGCGUAUAUA (XNA, 2'-OMe except dC9, dC16, dC25; 2'-F C14; 3' idT) [ARC19494], ≤ 5 fold IC50 vs ARC17480; for GGAAUAUACUUGGCUCGUUAGGUGCGUAUAUA (XNA, 2'-OMe except dC9, dC14, dC16, dC25 and dU31; 3' idT) [ARC33877], ≤ 5 fold IC50 vs ARC17480. As to GGAAUAUACUUGGCUCGUUAGGUGCGUAUAUA (XNA, 2'-OMe except dC9, dC14, dC16, dC25 and dA3; 3' idT) [ARC19450], in data set [1], the binding signal is ≤ 5 fold IC50 vs ARC17480. As to GGAAUAUACUUGGCUCGUUAGGUGCGUAUAUA (XNA, 2'-OMe except dC9, dC14, dC16, dC25 and dU19; 3' idT) [ARC33873], in data set [1], the binding signal is ≤ 5 fold IC50 vs ARC17480. Still for that read-out and setting: for GGAAUAUACUUGGCUCGUUAGGUGCGUAUAUA (XNA, 2'-OMe except dC9, dC14, dC16, dC25 and dA6; 3' idT) [ARC19453] the value was ≤ 5 fold IC50 vs ARC17480. The same measure, in the same setting: for GGAAUAUACUUGGCUCGUUAGGUGCGUAUAUA (XNA, 2'-OMe except dC9, dC14, dC16, dC25 and dU29; 3' idT) [ARC33876] the value was ≤ 5 fold IC50 vs ARC17480. The same measure, in the same setting: for GGAAUAUACUUGGCUCGUUAGGTGCGUAUAUA (XNA, 2'-OMe except dC9, dC14, dC16, dC25 and dT23; 3' idT) [ARC19467] the value was ≤ 5 fold IC50 vs ARC17480; for GGAAUAUACUUGGCUCGUUAGGUGCGUAUAUA (XNA, 2'-OMe except dC9, dC14, dC16, dC25 and dU7; 3' idT) [ARC33868], ≤ 5 fold IC50 vs ARC17480.

On to GGAAUAUACUUGGCUCGUUAGGUGCGUAUAUA (XNA, 2'-OMe except dC9, dC14, dC16, dC25 and dG21; 3' idT) [ARC19465], for which the binding signal in data set [1] was ≤ 5 fold IC50 vs ARC17480. Regarding GGAAUAUACUUGGCUCGUUAGGUGCGTAUAUA (XNA, 2'-OMe except dC9, dC14, dC16, dC25 and dT27; 3' idT) [ARC19470], the binding signal in data set [1] was ≤ 5 fold IC50 vs ARC17480. For GGAAUAUACUUGGCUCGUUAGGUGCGUAUAUA (XNA, 2'-OMe except dC9, dC14, dC16, dC25 and dA8; 3' idT) [ARC19455], the binding signal in data set [1] was ≤ 5 fold IC50 vs ARC17480. On the same count and under the same terms, for GGAAUAUACUUGGCUCGUUAGGUGCGUAUAUA (XNA, 2'-OMe except dC9, dC14, dC16, dC25 and dU27; 3' idT) [ARC33875] the value was ≤ 5 fold IC50 vs ARC17480; for GGAAUAUACUUGGCUCGUUAGGUGCGUAUAUA (XNA, 2'-OMe except dC9, dC14, dC16, dC25 and dG13; 3' idT) [ARC19459], ≤ 5 fold IC50 vs ARC17480; for GGAAUAUACUUGGCUCGUUAGGUGCGUAUAUA (XNA, 2'-OMe except dC9, dC14, dC16, dC25 and dA30; 3' idT) [ARC19473], ≤ 5 fold IC50 vs ARC17480. For the molecule GGAAUAUACUUGCUCGUUAGGUGCGUAUAUA (mixed, 2'-OMe A/G/U, 2'-deoxy C, 3' idT) [ARC33127], in data set [2], the binding signal is > 5 fold IC50 of ARC17480.

Regarding GGAAUAUACUUGGUCGUUAGGUGCGUAUAUA (mixed, 2'-OMe A/G/U, 2'-deoxy C, 3' idT) [ARC33128], the binding signal in data set [2] was > 5 fold IC50 of ARC17480. The same measure, in the same setting: for GGAAUAUACUUGGCUGUUAGGUGCGUAUAUA (mixed, 2'-OMe A/G/U, 2'-deoxy C, 3' idT) [ARC33130] the value was > 5 fold IC50 of ARC17480; for GGAAUAUACUUGGCCGUUAGGUGCGUAUAUA (mixed, 2'-OMe A/G/U, 2'-deoxy C, 3' idT) [ARC33129], > 5 fold IC50 of ARC17480; for GGAAUAACUUGGCUCGUUAGGUGCGUAUAUA (mixed, 2'-OMe A/G/U, 2'-deoxy C, 3' idT) [ARC33123], > 5 fold IC50 of ARC17480. Same read-out and setting: for GGAAUAUAUUGGCUCGUUAGGUGCGUAUAUA (mixed, 2'-OMe A/G/U, 2'-deoxy C, 3' idT) [ARC33125] the value was > 5 fold IC50 of ARC17480; for GGAAUAUCUUGGCUCGUUAGGUGCGUAUAUA (mixed, 2'-OMe A/G/U, 2'-deoxy C, 3' idT) [ARC33124], > 5 fold IC50 of ARC17480. The same measure, in the same setting: for GGAAUAUACUGGCUCGUUAGGUGCGUAUAUA (mixed, 2'-OMe A/G/U, 2'-deoxy C, 3' idT) [ARC33126] the value was > 5 fold IC50 of ARC17480.
